From PMC4900187

Target: FITC–BID BH3
Assay: fluorescence polarisation

MCL-1ΔNΔC, sequence (Q07820 172-327, stated change not applied): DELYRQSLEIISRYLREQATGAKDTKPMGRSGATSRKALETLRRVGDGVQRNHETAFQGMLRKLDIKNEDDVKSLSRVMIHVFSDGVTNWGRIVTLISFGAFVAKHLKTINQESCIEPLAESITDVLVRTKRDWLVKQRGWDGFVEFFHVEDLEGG
MAIM1-derivatized MCL-1ΔNΔC, sequence (Q07820 172-327, stated change not applied): as above

Substance | EC50
MAIM1-derivatized MCL-1ΔNΔC (from UniProt Q07820 172-327) (domain or fragment) | 85 nM
MCL-1ΔNΔC (from UniProt Q07820 172-327) (domain or fragment) | 21 nM
MCL-1ΔNΔC C286W (from UniProt Q07820 172-327) (domain or fragment) | 109 nM
